Where no end group is shown, it is not given here.
Key:
[1] = target: T1, cancer specific isoform of proliferating cell nuclear antigen (caPCNA) (human, UniProt P12004 1-261, acidic isoform; the filing says it differs from nmPCNA by post-translational modification, not by a genetic change; the residues are not stated); assay: competition ELISA, caPCNAab on the plate, purified caPCNA, XPG peptide in increasing amounts
T1 construct: Native protein from MCF7 cell extract, nuclear extract or synthesome fraction, or 'isolated/purified caPCNA' in the ELISAs; also called csPCNA; ca(cs)PCNA
T1 sequence (P12004 whole entry, canonical isoform): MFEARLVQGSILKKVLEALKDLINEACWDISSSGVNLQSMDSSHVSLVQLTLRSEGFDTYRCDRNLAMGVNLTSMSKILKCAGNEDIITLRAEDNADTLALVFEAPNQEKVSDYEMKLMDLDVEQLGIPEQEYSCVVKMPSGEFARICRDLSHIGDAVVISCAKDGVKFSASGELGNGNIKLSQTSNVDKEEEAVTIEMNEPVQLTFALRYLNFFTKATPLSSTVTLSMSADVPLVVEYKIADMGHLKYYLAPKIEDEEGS
Procedure: The wells are washed and then incubated with a goat anti-PCNA antibody (C20) that recognizes the C-terminal 20 amino acids of PCNA. Bound C20 antibody is visualized with an alkaline phosphatase conjugated anti-goat IgG antibody, and bound antibody complex is visualized with […], and quantified by spectrophotometry. The competition experiments shown in this study involve the simultaneous incubation of the ca(cs)PCNA with increasing amounts of the antigenic peptide fragment of caPCNA (referred to as B1 or the PCNA aa126-133 peptide) in this assay.
The ELISA described herein was used to monitor the ability of two peptides to disrupt caPCNA binding to the bound caPCNA antibody. One peptide (H-Gly-Arg-Lys- […] OH) (SEQ ID NO: 29) corresponding to the p21cip/waf1 proteins site of interaction with PCNA was evaluated in this assay, and is shown to have no effect on the binding of caPCNA to the bound caPCNA antibody in this ELISA assay (FIG. 7). […] Therefore, the XPG peptide interacts with its recognized PCNA binding site in order to block binding of the PCNA protein to the caPCNA antibody. This happens if the epitope recognized by the antibody was masked by specifically binding this XPG peptide.

[2] = target: cancer specific isoform of proliferating cell nuclear antigen (caPCNA) (human) (UniProt P12004); assay: capture ELISA, XPG-GST on the plate, cell extracts, detection with C20 anti-PCNA antibody
cancer specific isoform of proliferating cell nuclear antigen (caPCNA) (human), sequence (P12004 whole entry, canonical isoform): as above

Binder | binding result [1] | fold colored product (absorbance at 405 nm), MCF7 extract against MCF10A extract [2]
H-QTQLRIDSFFR-OH [XPG peptide corresponding to the XPG-PCNA interaction site of the XPG protein] | binds | 
LKQLDAQQTQLRIDSFFRLAQQEKEDAKR (peptide, UniProt P28715 981-1009, looked up, not shown: a dimerising Fc or GST, also: fused to GST, order of parts and linker not given here) [XPG-GST fusion protein] |  | 3 fold
